Measured values published in patent US20160272683A1 (Novo Nordisk, published 2016).
Numbered stars: 1 amine (or outer) side, 2 acyl side, 3 side chain; on linkers, the order of the positions; unused ones are H or OH. * marks the point of attachment. C20 diacid = O=C(O)CCCCCCCCCCCCCCCCCCC(=O)*; γGlu = O=C(O)[C@H](CCC(=O)[*:2])N[*:1]

T1: human calcitonin receptor (human, UniProt P30988 25-474)
T1 construct: whole, on cells; also called hCT-R; hCTR
T1 sequence (looked up): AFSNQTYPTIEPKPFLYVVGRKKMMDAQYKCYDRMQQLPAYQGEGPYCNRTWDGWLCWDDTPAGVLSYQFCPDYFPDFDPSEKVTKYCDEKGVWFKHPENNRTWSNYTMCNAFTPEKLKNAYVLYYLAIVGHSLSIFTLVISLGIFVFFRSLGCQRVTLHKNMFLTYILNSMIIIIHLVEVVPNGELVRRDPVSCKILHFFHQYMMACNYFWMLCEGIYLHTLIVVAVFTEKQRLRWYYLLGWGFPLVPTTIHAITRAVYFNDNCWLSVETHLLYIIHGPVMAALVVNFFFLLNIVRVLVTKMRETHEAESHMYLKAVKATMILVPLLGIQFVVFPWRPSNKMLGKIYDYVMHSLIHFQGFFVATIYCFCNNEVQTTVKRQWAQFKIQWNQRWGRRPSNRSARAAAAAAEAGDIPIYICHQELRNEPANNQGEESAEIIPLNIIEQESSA

B1: [N-terminal(C20 diacid), des1, 4G, 15Q, 21Q, 23Y, 30S, 31G, 32T, 33Y]mimylin (peptide)
peptide: {C20 diacid}-ASGLSTAALGRLSQELHELQTYPRTETGSGTY-NH2
SMILES: CC(C)C[C@H](NC(=O)CNC(=O)[C@H](CO)NC(=O)[C@H](C)NC(=O)CCCCCCCCCCCCCCCCCCC(=O)O)C(=O)N[C@@H](CO)C(=O)N[C@H](C(=O)N[C@@H](C)C(=O)N[C@@H](C)C(=O)N[C@@H](CC(C)C)C(=O)NCC(=O)N[C@@H](CCCNC(=N)N)C(=O)N[C@@H](CC(C)C)C(=O)N[C@@H](CO)C(=O)N[C@@H](CCC(N)=O)C(=O)N[C@@H](CCC(=O)O)C(=O)N[C@@H](CC(C)C)C(=O)N[C@@H](Cc1c[nH]cn1)C(=O)N[C@@H](CCC(=O)O)C(=O)N[C@@H](CC(C)C)C(=O)N[C@@H](CCC(N)=O)C(=O)N[C@H](C(=O)N[C@@H](Cc1ccc(O)cc1)C(=O)N1CCC[C@H]1C(=O)N[C@@H](CCCNC(=N)N)C(=O)N[C@H](C(=O)N[C@@H](CCC(=O)O)C(=O)N[C@H](C(=O)NCC(=O)N[C@@H](CO)C(=O)NCC(=O)N[C@H](C(=O)N[C@@H](Cc1ccc(O)cc1)C(N)=O)[C@@H](C)O)[C@@H](C)O)[C@@H](C)O)[C@@H](C)O)[C@@H](C)O
B2: [N-terminal(C20 diacid-gGlu), des1, 2L, 4G, 9V, 21S, 23Y, 30S, 31G, 32T, 33Y]mimylin (peptide)
peptide: {C20 diacid-γGlu}-LSGLSTAVLGRLSAELHELSTYPRTETGSGTY-NH2
SMILES: CC(C)C[C@H](NC(=O)CC[C@H](NC(=O)CCCCCCCCCCCCCCCCCCC(=O)O)C(=O)O)C(=O)N[C@@H](CO)C(=O)NCC(=O)N[C@@H](CC(C)C)C(=O)N[C@@H](CO)C(=O)N[C@H](C(=O)N[C@@H](C)C(=O)N[C@H](C(=O)N[C@@H](CC(C)C)C(=O)NCC(=O)N[C@@H](CCCNC(=N)N)C(=O)N[C@@H](CC(C)C)C(=O)N[C@@H](CO)C(=O)N[C@@H](C)C(=O)N[C@@H](CCC(=O)O)C(=O)N[C@@H](CC(C)C)C(=O)N[C@@H](Cc1c[nH]cn1)C(=O)N[C@@H](CCC(=O)O)C(=O)N[C@@H](CC(C)C)C(=O)N[C@@H](CO)C(=O)N[C@H](C(=O)N[C@@H](Cc1ccc(O)cc1)C(=O)N1CCC[C@H]1C(=O)N[C@@H](CCCNC(=N)N)C(=O)N[C@H](C(=O)N[C@@H](CCC(=O)O)C(=O)N[C@H](C(=O)NCC(=O)N[C@@H](CO)C(=O)NCC(=O)N[C@H](C(=O)N[C@@H](Cc1ccc(O)cc1)C(N)=O)[C@@H](C)O)[C@@H](C)O)[C@@H](C)O)[C@@H](C)O)C(C)C)[C@@H](C)O
B3: [N-terminal(C20 diacid-gGlu), des1, 4G, 9T, 15Q, 21Q, 23Y, 25P, 30S, 31G, 32T, 33Y]mimylin (peptide)
peptide: {C20 diacid-γGlu}-ASGLSTATLGRLSQELHELQTYPPTETGSGTY-NH2
SMILES: CC(C)C[C@H](NC(=O)CNC(=O)[C@H](CO)NC(=O)[C@H](C)NC(=O)CC[C@H](NC(=O)CCCCCCCCCCCCCCCCCCC(=O)O)C(=O)O)C(=O)N[C@@H](CO)C(=O)N[C@H](C(=O)N[C@@H](C)C(=O)N[C@H](C(=O)N[C@@H](CC(C)C)C(=O)NCC(=O)N[C@@H](CCCNC(=N)N)C(=O)N[C@@H](CC(C)C)C(=O)N[C@@H](CO)C(=O)N[C@@H](CCC(N)=O)C(=O)N[C@@H](CCC(=O)O)C(=O)N[C@@H](CC(C)C)C(=O)N[C@@H](Cc1c[nH]cn1)C(=O)N[C@@H](CCC(=O)O)C(=O)N[C@@H](CC(C)C)C(=O)N[C@@H](CCC(N)=O)C(=O)N[C@H](C(=O)N[C@@H](Cc1ccc(O)cc1)C(=O)N1CCC[C@H]1C(=O)N1CCC[C@H]1C(=O)N[C@H](C(=O)N[C@@H](CCC(=O)O)C(=O)N[C@H](C(=O)NCC(=O)N[C@@H](CO)C(=O)NCC(=O)N[C@H](C(=O)N[C@@H](Cc1ccc(O)cc1)C(N)=O)[C@@H](C)O)[C@@H](C)O)[C@@H](C)O)[C@@H](C)O)[C@@H](C)O)[C@@H](C)O
B4: [N-terminal(C20 diacid-gGlu), des1, 4G, 9V, 15Q, 21Q, 23Y, 30S, 31A, 32T, 33Y]mimylin (peptide)
peptide: {C20 diacid-γGlu}-ASGLSTAVLGRLSQELHELQTYPRTETGSATY-NH2
SMILES: CC(C)C[C@H](NC(=O)CNC(=O)[C@H](CO)NC(=O)[C@H](C)NC(=O)CC[C@H](NC(=O)CCCCCCCCCCCCCCCCCCC(=O)O)C(=O)O)C(=O)N[C@@H](CO)C(=O)N[C@H](C(=O)N[C@@H](C)C(=O)N[C@H](C(=O)N[C@@H](CC(C)C)C(=O)NCC(=O)N[C@@H](CCCNC(=N)N)C(=O)N[C@@H](CC(C)C)C(=O)N[C@@H](CO)C(=O)N[C@@H](CCC(N)=O)C(=O)N[C@@H](CCC(=O)O)C(=O)N[C@@H](CC(C)C)C(=O)N[C@@H](Cc1c[nH]cn1)C(=O)N[C@@H](CCC(=O)O)C(=O)N[C@@H](CC(C)C)C(=O)N[C@@H](CCC(N)=O)C(=O)N[C@H](C(=O)N[C@@H](Cc1ccc(O)cc1)C(=O)N1CCC[C@H]1C(=O)N[C@@H](CCCNC(=N)N)C(=O)N[C@H](C(=O)N[C@@H](CCC(=O)O)C(=O)N[C@H](C(=O)NCC(=O)N[C@@H](CO)C(=O)N[C@@H](C)C(=O)N[C@H](C(=O)N[C@@H](Cc1ccc(O)cc1)C(N)=O)[C@@H](C)O)[C@@H](C)O)[C@@H](C)O)[C@@H](C)O)C(C)C)[C@@H](C)O
B5: [N-terminal(C20 diacid-gGlu), des1, 4G, 8L, 9V, 15Q, 21Q, 23Y, 30S, 31Q, 32T, 33Y]mimylin (peptide)
peptide: {C20 diacid-γGlu}-ASGLSTLVLGRLSQELHELQTYPRTETGSQTY-NH2
SMILES: CC(C)C[C@H](NC(=O)CNC(=O)[C@H](CO)NC(=O)[C@H](C)NC(=O)CC[C@H](NC(=O)CCCCCCCCCCCCCCCCCCC(=O)O)C(=O)O)C(=O)N[C@@H](CO)C(=O)N[C@H](C(=O)N[C@@H](CC(C)C)C(=O)N[C@H](C(=O)N[C@@H](CC(C)C)C(=O)NCC(=O)N[C@@H](CCCNC(=N)N)C(=O)N[C@@H](CC(C)C)C(=O)N[C@@H](CO)C(=O)N[C@@H](CCC(N)=O)C(=O)N[C@@H](CCC(=O)O)C(=O)N[C@@H](CC(C)C)C(=O)N[C@@H](Cc1c[nH]cn1)C(=O)N[C@@H](CCC(=O)O)C(=O)N[C@@H](CC(C)C)C(=O)N[C@@H](CCC(N)=O)C(=O)N[C@H](C(=O)N[C@@H](Cc1ccc(O)cc1)C(=O)N1CCC[C@H]1C(=O)N[C@@H](CCCNC(=N)N)C(=O)N[C@H](C(=O)N[C@@H](CCC(=O)O)C(=O)N[C@H](C(=O)NCC(=O)N[C@@H](CO)C(=O)N[C@@H](CCC(N)=O)C(=O)N[C@H](C(=O)N[C@@H](Cc1ccc(O)cc1)C(N)=O)[C@@H](C)O)[C@@H](C)O)[C@@H](C)O)[C@@H](C)O)C(C)C)[C@@H](C)O
B6: [N-terminal(C20 diacid-gGlu), des1, 4G, 15T, 21E, 23Y, 30S, 31G, 32T, 33Y]mimylin (peptide)
peptide: {C20 diacid-γGlu}-ASGLSTAALGRLSTELHELETYPRTETGSGTY-NH2
SMILES: CC(C)C[C@H](NC(=O)CNC(=O)[C@H](CO)NC(=O)[C@H](C)NC(=O)CC[C@H](NC(=O)CCCCCCCCCCCCCCCCCCC(=O)O)C(=O)O)C(=O)N[C@@H](CO)C(=O)N[C@H](C(=O)N[C@@H](C)C(=O)N[C@@H](C)C(=O)N[C@@H](CC(C)C)C(=O)NCC(=O)N[C@@H](CCCNC(=N)N)C(=O)N[C@@H](CC(C)C)C(=O)N[C@@H](CO)C(=O)N[C@H](C(=O)N[C@@H](CCC(=O)O)C(=O)N[C@@H](CC(C)C)C(=O)N[C@@H](Cc1c[nH]cn1)C(=O)N[C@@H](CCC(=O)O)C(=O)N[C@@H](CC(C)C)C(=O)N[C@@H](CCC(=O)O)C(=O)N[C@H](C(=O)N[C@@H](Cc1ccc(O)cc1)C(=O)N1CCC[C@H]1C(=O)N[C@@H](CCCNC(=N)N)C(=O)N[C@H](C(=O)N[C@@H](CCC(=O)O)C(=O)N[C@H](C(=O)NCC(=O)N[C@@H](CO)C(=O)NCC(=O)N[C@H](C(=O)N[C@@H](Cc1ccc(O)cc1)C(N)=O)[C@@H](C)O)[C@@H](C)O)[C@@H](C)O)[C@@H](C)O)[C@@H](C)O)[C@@H](C)O
B7: [N-terminal(C20 diacid-gGlu), des1, 4G, 15Q, 21Q, 23Y, 25H, 30S, 31G, 32T, 33Y]mimylin (peptide)
peptide: {C20 diacid-γGlu}-ASGLSTAALGRLSQELHELQTYPHTETGSGTY-NH2
SMILES: CC(C)C[C@H](NC(=O)CNC(=O)[C@H](CO)NC(=O)[C@H](C)NC(=O)CC[C@H](NC(=O)CCCCCCCCCCCCCCCCCCC(=O)O)C(=O)O)C(=O)N[C@@H](CO)C(=O)N[C@H](C(=O)N[C@@H](C)C(=O)N[C@@H](C)C(=O)N[C@@H](CC(C)C)C(=O)NCC(=O)N[C@@H](CCCNC(=N)N)C(=O)N[C@@H](CC(C)C)C(=O)N[C@@H](CO)C(=O)N[C@@H](CCC(N)=O)C(=O)N[C@@H](CCC(=O)O)C(=O)N[C@@H](CC(C)C)C(=O)N[C@@H](Cc1c[nH]cn1)C(=O)N[C@@H](CCC(=O)O)C(=O)N[C@@H](CC(C)C)C(=O)N[C@@H](CCC(N)=O)C(=O)N[C@H](C(=O)N[C@@H](Cc1ccc(O)cc1)C(=O)N1CCC[C@H]1C(=O)N[C@@H](Cc1c[nH]cn1)C(=O)N[C@H](C(=O)N[C@@H](CCC(=O)O)C(=O)N[C@H](C(=O)NCC(=O)N[C@@H](CO)C(=O)NCC(=O)N[C@H](C(=O)N[C@@H](Cc1ccc(O)cc1)C(N)=O)[C@@H](C)O)[C@@H](C)O)[C@@H](C)O)[C@@H](C)O)[C@@H](C)O
B8: [N-terminal(C20 diacid-gGlu), des1, 4G, 9T, 15Q, 21Q, 23Y, 30S, 31G, 32T, 33Y]mimylin (peptide)
peptide: {C20 diacid-γGlu}-ASGLSTATLGRLSQELHELQTYPRTETGSGTY-NH2

The binders below were run against T1, human calcitonin receptor (assay: whole-cell competition vs 125I-human calcitonin (Assay VIIa)).
Outline: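 BHK tk'ts 13 cells stably co-expressing human calcitonin receptor and a CRE-luciferase reporter, seeded overnight at 37 °C. Bound tracer counted by scintillation after cold HBSS washes and NaOH/SDS lysis; IC₅₀ from one-site competition fit taken as receptor affinity.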
In the case of B1, the IC50 is reported as 0.747 nM. Binder B2 has an IC50 of 5.62 nM. In the case of B3, the IC50 is reported as 0.2 nM. With B4 the IC50 was 0.318 nM. B5 gave an IC50 of 1.83 nM. With B6 the IC50 was 0.547 nM. For B7, the IC50 was 0.45 nM. With B8 the IC50 was 0.312 nM.
